The text below walks through data of US20250236644A1 (University of Washington, published 2025).

Holding throughout (assay): FP titration, 1 nM peptide, hinge varied
For test [1], the target named is T1, TAMRA-labeled effector peptide cs074B (5(6)-TAMRA label coupled on resin after synthesis).
T1 construct: Chemically synthesized; also called TAMRA-cs074B
T1 peptide: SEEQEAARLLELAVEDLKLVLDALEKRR
Here is the method: (§1) FIG. 10. Redesign of hinges to bind other target peptides. An experimentally tested hinge (top, cs201) is redesigned using a one-sided two-state design approach to bind to different target peptides. Hinges csw13 and csw20 are designed to bind to peptides cs221B and cs074B, respectively, while having a backbone conformation that is similar to the parent cs201 that binds cs201B. Left: design models, right: FP titrations using 1 nM peptide (cs201B, cs221B, cs074B, js007B) and varying concentrations of hinge (from top to bottom: cs201, csw13, csw20). csw13 is an example of a successful orthogonal redesign that specifically binds the new target peptide cs221B while not binding the parent target peptide cs201B or the off-target peptides cs074B or js007B. csw20 is a less orthogonal example that binds the new target peptide cs074B most strongly but still binds to the parent-target peptide cs201B and to the off-target peptide cs221B albeit weaker than the new target.
(§2) All FP measurements were performed at 25° C. in 96-well plates (Corning 3686) using a Synergy Neo2™ plate reader and a 530/590 nm filter cube. The buffer for all FP measurements was 20 mM Tris-HCl, 100 mM NaCl, 0.05% v/v TWEEN20 at pH 8. Titrations were carried out in 96-well format, with 4 replicates per plate and 24 data points per titration (23 steps of two-fold serial dilution of hinges in the presence of TAMRA-labeled peptide at a constant concentration between 0.1 nM and 1 nM) with a final sample volume of 80 μl per well. Titration plates were incubated overnight at room temperature before measuring to ensure complete equilibration. The polarization signal S (as calculated by the Neo2™ software) was fitted to the equation

Test [2] has as its target T2, TAMRA-labeled effector peptide cs201B (5(6)-TAMRA label coupled on resin after synthesis).
T2 construct: also called TAMRA-cs201B
T2 peptide: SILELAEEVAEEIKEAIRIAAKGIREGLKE
The procedure:
as §1, §2

Test [3] deals with T3, TAMRA-labeled effector peptide cs221B (5(6)-TAMRA label coupled on resin after synthesis).
T3 construct: also called TAMRA-cs221B
T3 peptide: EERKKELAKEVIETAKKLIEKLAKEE
The procedure:
as §1, §2

The target in test [4] is T4, TAMRA-labeled effector peptide js007B (5(6)-TAMRA label coupled on resin after synthesis).
T4 construct: also called TAMRA-js007B
T4 peptide: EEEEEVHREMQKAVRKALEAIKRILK
Here is the method:
as §1, §2

B1: swapped target hinge csw13 (designed binder)
chain: MSGNEEVKKLVEEAKKYLKEAEEYIKKAKKTGNEELLEKALKLLEKALELVKKAIELDPNNKEAIEQAVEIARALNEVAELLIEEAKKTGNEELLEKALEALEAANEALKLAIENNENDKELLAEIAVELAEVGVLLAEVLIEEAKKTGDPELLKLALEVLEAAVEALELALKLDPNNEEAVELAEEAAKLLEEVAKELKEEAKKTGDPELEKLAKEAEELAKRAKELAERQRGSGSHHWGSTHHHHHH
As to B1, the binding result in test [1] is “no binding”; in test [2], “no binding”; in test [3], “binds”; in test [4], “no binding”.
